Measured values taken from article PMC2133148 (The Journal of Cell Biology, 1999).
No end group written: not given here.

How the values were obtained:
Experiment in all cases: two-hybrid
[1] = target: PS1-loop C T291A (LexA fusion bait) (human, UniProt P49768 264-294, T291A)
[2] = target: PS2-loop B (LexA fusion bait) (human, UniProt P49810 270-319)
[3] = target: PS1-loop C (LexA fusion bait) (human, UniProt P49768 264-294)
[4] = target: PS1-loop C (T281P, T291A) (LexA fusion bait) (human, UniProt P49768 264-294, T281P | T291A)
[5] = target: PS1-loop C T281P (LexA fusion bait) (human, UniProt P49768 264-294, T281P)
[6] = target: PS2-loop C (LexA fusion bait) (human, UniProt P49810 270-300)
[7] = target: T1, PS2-loop D (LexA fusion bait) (human, UniProt P49810 301-319, also: LexA fusion bait)
T1 chain (looked up): TVGMAKLDPSSQGALQLPY

[8] = target: PS1-loop C (T281P, L282I) (LexA fusion bait) (human, UniProt P49768 264-294, T281P | L282I)

interaction relative to PS2-loop C [1]: ~0.33 fold of the PS2 level
fold increase in β-galactosidase activity over the lamin B control [2]: 8.5 fold
fold increase in β-galactosidase activity over the lamin B control [3]: 5.8 fold
interaction relative to PS2-loop C [4]: ~2 fold of the wild-type PS2-loop bait
interaction relative to PS2-loop C [5]: ~0.5 fold of the PS2 level
fold increase in β-galactosidase activity over the lamin B control [6]: 74 fold
fold increase in β-galactosidase activity over the lamin B control [7]: 2.2 fold
interaction relative to PS1-loop C T281P [8]: 1.7 fold of T281P alone
B1: calmyrin (clone 7, full-length cDNA in pJG4-5) (natural protein, human, UniProt Q99828 1-191, looked up)
chain: MGGSGSRLSKELLAEYQDLTFLTKQEILLAHRRFCELLPQEQRSVESSLRAQVPFEQILSLPELKANPFKERICRVFSTSPAKDSLSFEDFLDLLSVFSDTATPDIKSHYAFRIFDFDDDGTLNREDLSRLVNCLTGEGEDTRLSASEMKQLIDNILEESDIDRDGTINLSEFQHVISRSPDFASSFKIVL
